Results taken from US20220143145A1.

Experiments:
[1] = target: IL4 receptor (IL4Rα) on mouse sensory neurons (mouse) (UniProt P16382); assay: cell-based or functional assay
[2] = target: IL10 receptor (IL10Rα) on mouse sensory neurons (mouse) (UniProt Q61727); assay: cell-based or functional assay
Sequence of UniProt Q61727 (Q61727 17-575): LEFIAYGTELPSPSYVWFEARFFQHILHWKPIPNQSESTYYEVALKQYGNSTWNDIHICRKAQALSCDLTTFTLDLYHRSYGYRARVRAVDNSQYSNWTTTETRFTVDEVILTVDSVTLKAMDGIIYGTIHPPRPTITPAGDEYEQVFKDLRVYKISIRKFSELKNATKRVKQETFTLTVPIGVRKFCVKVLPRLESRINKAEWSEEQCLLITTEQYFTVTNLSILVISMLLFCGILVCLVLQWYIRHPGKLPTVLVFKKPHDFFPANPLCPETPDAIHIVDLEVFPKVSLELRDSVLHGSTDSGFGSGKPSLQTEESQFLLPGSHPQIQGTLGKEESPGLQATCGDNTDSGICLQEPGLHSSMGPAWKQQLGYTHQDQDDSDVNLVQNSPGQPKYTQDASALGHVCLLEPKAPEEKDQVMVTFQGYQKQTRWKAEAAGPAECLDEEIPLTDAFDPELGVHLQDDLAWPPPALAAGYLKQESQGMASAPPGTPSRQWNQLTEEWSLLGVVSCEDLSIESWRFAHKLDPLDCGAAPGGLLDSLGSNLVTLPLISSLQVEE

Sequence of UniProt P16382 (P16382 26-810): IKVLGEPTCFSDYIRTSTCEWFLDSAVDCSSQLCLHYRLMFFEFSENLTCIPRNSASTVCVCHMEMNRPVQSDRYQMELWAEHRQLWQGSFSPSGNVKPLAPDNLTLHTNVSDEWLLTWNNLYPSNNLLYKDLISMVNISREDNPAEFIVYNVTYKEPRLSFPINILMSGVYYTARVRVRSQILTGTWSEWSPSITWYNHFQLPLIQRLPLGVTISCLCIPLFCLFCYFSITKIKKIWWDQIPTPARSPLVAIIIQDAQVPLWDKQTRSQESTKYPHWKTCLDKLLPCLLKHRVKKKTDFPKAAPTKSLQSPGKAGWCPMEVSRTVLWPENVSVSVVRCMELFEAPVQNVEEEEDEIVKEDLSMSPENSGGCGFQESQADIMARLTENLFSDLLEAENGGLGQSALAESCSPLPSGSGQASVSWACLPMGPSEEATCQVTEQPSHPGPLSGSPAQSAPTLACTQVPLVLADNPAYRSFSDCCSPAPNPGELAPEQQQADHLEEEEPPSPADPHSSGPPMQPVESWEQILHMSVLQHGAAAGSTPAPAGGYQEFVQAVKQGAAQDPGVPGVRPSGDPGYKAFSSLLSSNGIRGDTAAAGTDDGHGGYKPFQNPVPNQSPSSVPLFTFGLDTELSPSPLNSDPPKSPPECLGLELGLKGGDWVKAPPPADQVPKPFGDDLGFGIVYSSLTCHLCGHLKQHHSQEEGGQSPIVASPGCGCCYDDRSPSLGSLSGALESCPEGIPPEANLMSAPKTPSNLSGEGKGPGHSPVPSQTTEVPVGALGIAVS

IL4-10 fusion protein (ligand)
concentration that completely reversed TNFα-induced sensitization of capsaicin-evoked calcium influx [1]: 3 nM
concentration that completely reversed TNFα-induced sensitization of capsaicin-evoked calcium influx [2]: 3 nM
